# Measurements as given in publication PMC9011732.
# Key:
# [1] = molecular target: monomeric wild-type RBD (319-541) of the SARS-CoV-2 spike (S)-protein (SARS-CoV-2 (Wuhan-Hu-1 isolate)) (UniProt P0DTC2); assay: SEC
# [2] = molecular target: tRBD-TA, truncated RBD (319-537) with T323 mutated to alanine (SARS-CoV-2 (Wuhan-Hu-1 isolate)) (UniProt P0DTC2); assay: SEC
substance,measurement,setting,value
monomeric wild-type RBD (319-541) of the SARS-CoV-2 spike (S)-protein (from UniProt P0DTC2 319-541) (domain or fragment),proportion of dimer in the preparation,[1],20 to 25%
same,stoichiometry N,[1],2
"tRBD-TA, truncated RBD (319-537) with T323 mutated to alanine (from UniProt P0DTC2 319-537) (domain or fragment)",percent of the protein dimerized after 7 days at 25°C,[2],10%
same,proportion of dimer in the preparation,[2],25 to 28%
